From the supplement of paper PMC9170038

Tested on: MS2 coat protein
Assay: apparent KD of MS2 coat protein; designed switch direction (-1 OFF switch, 1 ON switch): -1; higher = weaker reporter binding
In short: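 SNAP-549-labelled MS2 coat protein was titrated, doubling from 0.7 or 1.5 nM to 3 µM, over designed RNA switches transcribed on Illumina chips by stalled E. coli RNA polymerase. Runs were done without input, with 200 uM small-molecule ligand, or with an oligonucleotide input. Apparent KD is the per-design median over clusters of curve-fitted normalised fluorescence.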

[1] = input ligand: microRNA oligo, concentration not stated
[2] = Eterna round: R95, input ligand: FMN 200 uM
[3] = Eterna round: R95, input ligand: microRNA oligo, concentration not stated
[4] = Eterna round: R95, input ligand: none

Row | Sequence | apparent KD of MS2 coat protein (input ligand: FMN 200 uM) [nM] | apparent KD of MS2 coat protein (input ligand: none) [nM] | apparent KD of MS2 coat protein [1] [nM] | apparent KD of MS2 coat protein [2] [nM] | apparent KD of MS2 coat protein [3] [nM] | apparent KD of MS2 coat protein [4] [nM]
1 | ACGUACCUAGGAUAUACAUGGCCACAUGAUGCCAAGGAACAACUUGAGGAUCACCCAAGUAGAAGGAGGAAAAG [Riberace] (Eterna round: R97, puzzle: Exclusion 2) | 78.1 | 73.4 | – | – | – | –
2 | ACGUACUGAGGAUAUACGAACAUGUCAAAAGACGUGAAGGGACAUGAGGAUCACCCAUGUAGAAGGCAGUACGA [Mat - Exclusion 2 - JL mod - D7] (Eterna round: R96, puzzle: Exclusion 2) | – | – | 32.7 | – | – | –
3 | ACGUGAUAUCUGUCGGUGGACAUGAGGAUCACCCAUGUAAGCUUUUCGCUCGUCUUAUAACCCGGUGACAGACCUUC [Edraatis] (puzzle: Sensor v3, turn-off variant 1) | – | – | – | 33.7 | 417 | 48
4 | ACGUGAUAUCUGUCGUUGGACAUGAGGAUCACCCAUGUAAGCUUUUUGCUCGUCUUAUAACCCGGUGACAGACCUUC [Dienlave] (puzzle: Sensor v3, turn-off variant 1) | – | – | – | 24.7 | 236 | 23.9
5 | ACGUUUUUUGAGGAUAUGCGACGUUCCUUCGUCGUAGAAGGCGAUACAUGAGGAUCACCCAUGUUUAUGGGCAU [LRO-Ex6-17] (puzzle: Exclusion 6) | – | – | – | – | 86.4 | –
6 | ACUAGAUGAGGAUAUGCAUAUUUUCGUGUUCUUCUAGGUUAACAUGAGGAUCACCCAUGUAGAAGGCGUCUAUC [Exclusion 2 - 25] (puzzle: Exclusion 2) | – | – | – | – | 21.6 | –
7 | ACUAGCUUUUUGCAUAGUAGGUUUGGUGCUUCGUAUGCUACAUGAGGAUCACCCAUGUAUUACUGAUUUCGUCGUUU [JR_SV3TOV2_Sub093] (puzzle: Sensor v3, turn-off variant 2) | – | – | – | 24.6 | 41.1 | 27.3
8 | ACUGGUCAUGAGGAUAUGCGCCAGAACGCCGGCGUAGAAGGCGUGACAUGAGGAUCACCCAUGUCAGUUCGCGA [eternacac ex6r4 sub30] (Eterna round: R97, puzzle: Exclusion 6) | 39.1 | 39.6 | – | – | – | –
9 | ACUGGUCGAGGAUAUACAUGACGUGCUUCGGCACGAGAUCUACAUGAGGAUCACCCAUGUAGAAGGCGACCAGU [E2/11-A2] (Eterna round: R97, puzzle: Exclusion 2) | 735 | 65 | – | – | – | –
10 | ACUUAUAGAGGAUAUACAGAAUAUUACAUGAGGAUCACCCAUGUUCUUCAAUGUAUAUAUGUAGAAGGCUAAGGAU [Mat - Exclusion 5 - JL Mod - D6] (Eterna round: R97, puzzle: Exclusion 5) | 299 | 89.9 | – | – | – | –
11 | ACUUAUAGAGGAUAUACAGAAUAUUACAUGAGGAUCACCCAUGUUCUUCAAUGUAUAUAUGUAGAAGGCUAAGGUU [Mat - Exclusion 5 - JL Mod - D7] (Eterna round: R97, puzzle: Exclusion 5) | 286 | 131 | – | – | – | –
12 | ACUUAUAGAGGAUAUACAGUUAAUUACAUGAGGAUCACCCAUGUUCUUCAAUGUAUAUAAGUAGAAGGCUAAGAAA [Mat - Exclusion 5 - Eli Mod - D5] (Eterna round: R97, puzzle: Exclusion 5) | 58 | 13.5 | – | – | – | –
13 | ACUUGUGUUGAGGAUAUGCGACGCAACGGUGGAGCAGAAGGCGGCACAUGAGGAUCACCCAUGUCAGUUCGCGA [eternacac ex6r4 sub33] (Eterna round: R97, puzzle: Exclusion 6) | 86.3 | 14.6 | – | – | – | –
14 | AGAAAGCAAGGAUAUACGAGGAGAAGGAGGAAAGUUAAAGGACAUGAGGAUCACCCAUGUAGAAGGUGCGAGAA [JR_Exclu2_Sub042] (puzzle: Exclusion 2) | – | – | – | 33.3 | 58.9 | 55.8
15 | AGAAAGUCAGGAUAUACAUGAGGAUCACCCAUGUAAAGAAAAGAAAGGGAAGGAAGAGGUAGAAGGGACAAGAA [JR_Exclu3_Sub031] (puzzle: Exclusion 3) | – | – | – | 26.5 | 22.7 | 23
16 | AGAAGUAGUACCCGAUCCUACAUGAGGAUCACCCAUGUAGCUAGACGUGCACGCGAUGCUCGUCAGACUACCAGAUG [salish99_TOv1_r3_032] (puzzle: Sensor v3, turn-off variant 1) | – | – | – | 153 | 144 | 189
17 | AGACAGUCAGGAUAUACAUGAGGAUCACCCAUGUUGAGAUGAGAAAGGGCAGGAAGAGGUAGAAGGGACGAGAG [JR_Exclu3_Sub036] (puzzle: Exclusion 3) | – | – | – | 31 | 24.7 | 30.4

Row | Sequence | apparent KD of MS2 coat protein (input ligand: FMN 200 uM) [nM] | apparent KD of MS2 coat protein (input ligand: none) [nM] | apparent KD of MS2 coat protein [1] [nM] | apparent KD of MS2 coat protein [2] [nM] | apparent KD of MS2 coat protein [3] [nM] | apparent KD of MS2 coat protein [4] [nM]
18 | AGACCGAUAGCAGGAUAUAGGACGACGAGAGCGCUAGAAGGGCUGACGACAUGAGGAUCACCCAUGUUUUCGUCUCAACAGGCA [Eternabot solution 22] (Eterna round: R96, puzzle: Exclusion NG 1) | 31 | 29.2 | 23.1 | – | – | –
19 | AGACGGUGAGGAUAUAGACGCAAUCACAUGAGGAUCACCCAUGUGACACGUGAUGGCUGGUUAGAAGGCGCGAAUC [Eternabot (L1) Solution 37] (Eterna round: R97, puzzle: Exclusion 5) | 17.1 | 17.4 | – | – | – | –
20 | AGACGUGCAGUGCUCCUCCACAUGAGGAUCACCCAUGUCACUGAGGAUAUCUGCAGGUAACUGCUGGAGAAGGCAGAAAGAAUG [Atrien] (Eterna round: R96, puzzle: Exclusion NG 3) | 81.9 | 29.5 | 22.1 | – | – | –
21 | AGACUCAUUGUGAGGAUAUCGGGUCAACGAGACUACGAGAAGGCACAUGAGGAUCACCCAUGUAGCCACGGCUA [Eternabot (L2) Solution 95] (Eterna round: R97, puzzle: Brourd's mod of Exclusion 4) | 94.8 | 240 | – | – | – | –
22 | AGAGAGUCAGGAUAUGACGAAGAGAACAUGAGGAUCACCCAUGUUGCUUCGUUUUUAUCGUCAGAAGGGACGAACU [JR_Ex5_Sub088] (Eterna round: R97, puzzle: Exclusion 5) | 13.8 | 13.9 | – | – | – | –
23 | AGAGUGCUGCGAGGAUAUACAUGAGGAUCACCCAUGUAAUCGUCUGAGGCAAAGCCUCAGACGAAGUAGAAGGCGCAGUACUCA [Mat - Exclusion NG 2 - Mod of JL - D27] (Eterna round: R96, puzzle: Exclusion NG 2) | 20 | 17.9 | 12.5 | – | – | –
24 | AGAUAACAUGAGGAUCACCCAUGUCAGGAUAUCGACUGAACAGCUUCGGCUGUUCAGUCGAGAAGGGACAAUUA [Brourdxlusion 9 - Jieux - Exclusion 1] (Eterna round: R97, puzzle: Exclusion 1) | 84.1 | 61.2 | – | – | – | –
25 | AGAUCACAUGAGGAUCACCCAUGUCAGGAUAUCGUCACUGGAGCUGCGGCUCCAGUGACGAGAAGGGAUAAUUA [E1/4-A3] (Eterna round: R97, puzzle: Exclusion 1) | 92.4 | 52 | – | – | – | –
26 | AGAUCACAUGAGGAUCACCCAUGUCAGGAUAUGAUACUAUGUACUUCGGUACAUAGUAUCAGAAGGGACAUAAA [Ex1-3: 69] (puzzle: Exclusion 1) | – | – | – | 31.5 | 140 | 89.2
27 | AGAUCGUCAGGAUAUACAUGAGGAUCACCCAUGUAUAGUCUAAAUUUGACUAUAAAGUGUAGAAGGGACGAUCG [Exclusion 3 (MOD6 of #1 Marzena11)] (Eterna round: R97, puzzle: Exclusion 3) | 51.5 | 18.1 | – | – | – | –
28 | AGAUGCUCAAGUCGACAUGAGGAUCACCCAUGUACAGUAAACGAGGAUAUCCGAGAUAAAUAAUAGGAGAAGGCGUGAUCAUGA [Mat - Exclusion NG 3 - Mod of JL - D55] (Eterna round: R96, puzzle: Exclusion NG 3) | 337 | 86.3 | 66 | – | – | –
29 | AGAUGCUCAAGUCGACAUGAGGAUCACCCAUGUACAGUUAAUGAGGAUAUCCGAGAUAAAUAAUAGGAGAAGGCGUGAACAUGA [Ex NG3 #8] (Eterna round: R96, puzzle: Exclusion NG 3) | 72.4 | 94.1 | 50.6 | – | – | –
30 | AGAUGCUCAAGUCGACAUGAGGAUCACCCAUGUACAGUUAAUGAGGAUAUCCGAGAUAAAUAAUAGGAGAAGGCGUGAUCAUGA [Ex NG3 #7] (Eterna round: R96, puzzle: Exclusion NG 3) | 284 | 458 | 383 | – | – | –
31 | AGAUGGCGAGGAUAUACAUGAGGAUCACCCAUGUGAGAAGAGAAAGUGAGGAAGAAAAGUAGAAGGCGCUGUCA [Mat - Exclusion 3 - Mod of Salish D21] (puzzle: Exclusion 3) | – | – | – | 200 | 60.9 | 57
32 | AGAUUAAUAGUAAGGAUAUGAUGCAGGAAACUGCGUCAGAAGGUACAUGAGGAUCACCCAUGUUAAACUAAUUU [Explosion 7 - Jieux - Brourd's mod of Exclusion 4] (Eterna round: R97, puzzle: Brourd's mod of Exclusion 4) | 17.4 | 15 | – | – | – | –
33 | AGAUUGUUAGGAUAUUCGGACCGCUACGAAGCGUGGUCCAGGGAGAAGGAACAUGAGGAUCACCCAUGUGACCA [Eternabot (L2) Solution 33] (Eterna round: R97, puzzle: Exclusion 4) | 69.7 | 26 | – | – | – | –
